Target: ubiquitin agarose (UniProt P0CG48 1-76, linked to agarose beads)
Test: pull-down

binding result: binds
B1: GST-spartin 1-408 (domain or fragment)
chain: MEQEPQNGEPAEIKIIREAYKKAFLFVNKGLNTDELGQKEEAKNYYKQGIGHLLRGISISSKESEHTGPGWESARQMQQKMKETLQNVRTRLEILEKGLATSLQNDLQEVPKLYPEFPPKDMCEKLPEPQSFSSAPQHAEVNGNTSTPSAGAVAAPASLSLPSQSCPAEAPPAYTPQAAEGHYTVSYGTDSGEFSSVGEEFYRNHSQPPPLETLGLDADELILIPNGVQIFFVNPAGEVSAPSYPGYLRIVRFLDNSLDTVLNRPPGFLQVCDWLYPLVPDRSPVLKCTAGAYMFPDTMLQAAGCFVGVVLSSELPEDDRELFEDLLRQMSDLRLQANWNRAEEENEFQIPGRTRPSSDQLKEASGTDVKQLDQGNKDVRHKGKRGKRAKDTSSEEVNLSHIVPCEPV

Source: paper PMC3982999 (Molecular Biology of the Cell, 2014)
